B1: 374_A10 (antibody, V domains shown)
VH: EVQLLESGGGLVQPGGSLRLSCAASGFTFSSYGMHWVRQAPGKGLEWVSGINYNGGYTSYADSVKGRFTISRDNSKNTLYLQMNSLRAEDTAVYYCARAATWHDTHLDYWGQGTLVTVSS
VL: DIQMTQSPSSLSASVGDRVTITCRASQSILSYVNWYQQKPGKAPKLLIYAATSRASGVPSRFSGSGSGTDFTLTISSLQPEDFATYYCQQSYDTPLTFGGGTKVEIK
notes: Group II
B2: 365_C05 (antibody, V domains shown)
VH: B1 VH with S31D, G33S, H35N, T58K, S59G, A99G, T101N
VL: B1 VL with S31T, V33L, A55H, D93N, T94S
notes: Group III
B3: 365_E04 (antibody, V domains shown)
VH: B1 VH with S30D, S49A, G50S, T58K, T101N, H106A
VL: B1 VL with R54L, D93E, T94L
notes: Group I
B4: 365_A05 (antibody, V domains shown)
VH: B1 VH with G50S
VL: not shown
notes: Group II
B5: 365_C03 (antibody, V domains shown)
VH: B1 VH with S49A, G55S, T58K, S59G, T101N
VL: B1 VL with S31T, L47V, A51T, R54L, D93N
notes: Group I
B6: 365_B12 (antibody, V domains shown)
VH: B1 VH with S31D
VL: B1 VL with L30S, S31T, A51V, R54L, A55H, T94N
notes: Group II
B7: 365_F11 (antibody, V domains shown)
VH: B1 VH with S30D, G33S, H35N, G55S, T58K, S59G, T101N
VL: B1 VL with L30I, D93N
notes: Group I
B8: 365_F10 (antibody, V domains shown)
VH: B1 VH with S30D, S31D
VL: B1 VL with L30V, S31T, D93E, T94L
notes: Group II
B9: 365_F02 (antibody, V domains shown)
VH: B1 VH with G33S, H35N, T58K, S59G, A99G, T101N
VL: B1 VL with S31T, A55H
notes: Group III
B10: 365_C06 (antibody, V domains shown)
VH: B1 VH with S31D, T101N, H106A
VL: B1 VL with L30S, S31T, A51V, R54L, T94N
notes: Group I
B11: 365_D04 (antibody, V domains shown)
VH: B1 VH with S31D, S49A, T58K, T101N, H106A
VL: B1 VL with L30S, V33L, L47V, A51V, T94L
notes: Group I
B12: 365_D03 (antibody, V domains shown)
VH: B1 VH with S30D, S31D, G33S, S49A, G50S, T58K
VL: B1 VL with L30V, V33L, L47V, T94S
notes: Group II
B13: 365_B08 (antibody, V domains shown)
VH: B1 VH with S30D, H35N, G50N, G55S, T58K, S59G
VL: B1 VL with L30V, S31T, V33L, D93S, T94S
notes: Group II
B14: 365_G03 (antibody, V domains shown)
VH: B1 VH with H35N, S49A, G55S, T58K, S59G, A99G, T101N
VL: B1 VL with L30V, V33L, D93N
notes: Group III
B15: 365_F03 (antibody, V domains shown)
VH: B1 VH with S30D, G33S, H35N, G50S, A99G, T101N
VL: B1 VL with V33L, T94N
notes: Group III
B16: 365_D08 (antibody, V domains shown)
VH: B1 VH with S30D, G33S, G50S
VL: B1 VL with L30I, S31T
notes: Group II
B17: 365_E06 (antibody, V domains shown)
VH: B1 VH with S30D, H35N, S59G
VL: B1 VL with S31T, V33L, L47V, D93N
notes: Group II
B18: 365_E12 (antibody, V domains shown)
VH: B1 VH with S31D, H35N, G50N, S59G, A99G, T101N, H106A
VL: B1 VL with S31T, V33L, D93E
notes: Group III
B19: 365_B04 (antibody, V domains shown)
VH: B1 VH with S49A, G50S, G55S, T101N, H106A
VL: B1 VL with S31T, V33L, A55H, Y92D, D93E, T94S
notes: Group I
B20: 368_C02 (antibody, V domains shown)
VH: B1 VH with S30D, S31D, G33S, H35N, S49A, G50N, T58K, S59G, A99G, T101N
VL: B1 VL with L30S, S31T, R54L, D93S
notes: Group III
B21: 376_E11 (antibody, V domains shown)
VH: B1 VH with G33S, H35N, A99G, T101N, H106A
VL: B1 VL with S31T, L47V, D93E, T94L
notes: Group III
B22: 376_F01 (antibody, V domains shown)
VH: B1 VH with S31D, G33S, H35N, S49A, T58K, A99G, T101N, H106A
VL: not shown
notes: Group III
B23: 369_A03 (antibody, V domains shown)
VH: B1 VH with H35N, G50N, S59G, A99S, T101N, H106A
VL: B1 VL with S31T, V33L, A51V, A55H, S91G, T94L

Results on 23 molecules are retold here after patent US20210380703A1 (RIGEL PHARMACEUTICALS, published 2021).

Numbering of substitutions follows the chain as printed.
Also: test concentration or dose not given here.

T3 sequence (P27037 20-135 limits assumed): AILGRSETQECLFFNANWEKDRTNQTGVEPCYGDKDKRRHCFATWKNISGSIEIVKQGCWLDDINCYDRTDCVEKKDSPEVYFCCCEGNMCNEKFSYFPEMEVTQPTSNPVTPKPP

One assay deals with mouse ACVR2A (mouse, UniProt P27038 20-135, limits assumed). The assay is described as follows: ELISA. A digest of the protocol:
(§1)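 mAb binding by ELISA; antigens: hu ACVR2A, mu ACVR2A; pos ctrl biotinylated goat anti-hu kappa LC; neg ctrl hu Fc.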
(In an ELISA, binding on a coated surface is turned into a signal by an enzyme label.)
Target sequence in this assay (P27038 20-135 limits assumed): as the sequence (P27037 20-135 limits assumed) above, with K20R, V73I counted along it
Consider B1, for which the optical density was 3.59 OD.
In turn, B2 displayed an optical density of 2.81 OD.
Still for that read-out and setting: then B3, with 2.4 OD; and B4, with 2.23 OD.
On the same count and under the same terms, in the case of B5 it was 2.65 OD; in that of B6, 2.29 OD; in that of B7, 2.14 OD.
Still for that read-out and setting: then B8, with 2.79 OD.
In turn, B9 came in with an optical density of 3.05 OD.
The same measure, in the same setting: in the case of B10 it was 2.23 OD.
Same read-out and setting: in the case of B11 it was 2.39 OD; in that of B12, 2.48 OD; in that of B13, 1.26 OD.
Molecule B14 came in with an optical density of 2.54 OD.
Still for that read-out and setting: then B15, with 2.99 OD; and B16, with 2.35 OD.
Still for that read-out and setting: in the case of B17 it was 2.06 OD; in that of B18, 3.28 OD.
B19 displayed an optical density of 2.18 OD.

A further assay concerns the target T1, human ACVR2A (human, UniProt P27037 20-135, limits assumed).
T1 construct: coated antigen of the initial ELISA; also called activin receptor, type II A
Kind of assay: ELISA. A digest of the protocol:
as §1
T1 sequence (P27037 20-135 limits assumed): as the sequence (P27037 20-135 limits assumed) above
For the molecule B20, the optical density came out at 1.38 OD.
On to B21, for which the optical density turned out to be 3.68 OD.
The same measure, in the same setting: then B22, with 2.77 OD.

A further assay addresses T2, human ACVR2A (human, UniProt P27037 20-135, limits assumed).
T2 construct: also called activin receptor, type II A
The assay is described as follows: ELISA. An outline of the steps: as §1
T2 sequence (P27037 20-135 limits assumed): as above
B1 displayed an optical density of 3.56 OD.
Molecule B2 yielded an optical density of 2.56 OD.
For the molecule B3, the optical density is 2.34 OD.
Take B4: the optical density came out at 2.34 OD.
B5 displayed an optical density of 2.26 OD.
The molecule B6 came in with an optical density of 2.33 OD.
Regarding B7, the optical density worked out at 2.01 OD.
Molecule B8 had an optical density of 2.75 OD.
In the case of B9, the optical density is 2.78 OD.
B10 had an optical density of 1.78 OD.
Molecule B11 returned an optical density of 2.27 OD.
On the same count and under the same terms, then B12, with 2.35 OD; and B13, with 1.14 OD; and B14, with 2.24 OD.
Still for that read-out and setting: then B15, with 2.63 OD; and B16, with 2.26 OD.
Take B17: the optical density came to 1.99 OD.
On the same count and under the same terms, in the case of B18 it was 3.32 OD.
Still for that read-out and setting: then B19, with 1.99 OD.

The next assay concerns the target T3, Human ACVR2A (human, UniProt P27037 20-135, limits assumed).
T3 construct: also called activin receptor, type II A
Kind of assay: ELISA. A digest of the protocol:
as §1
For B23, the optical density was determined as 0.451 OD.

A further assay has as its target T4, mouse ACVR2A (mouse, UniProt P27038 20-135, limits assumed).
T4 construct: coated antigen of the initial ELISA
Kind of assay: ELISA. A digest of the protocol: as §1
T4 sequence (P27038 20-135 limits assumed): as the sequence (P27037 20-135 limits assumed) above, with K20R, V73I counted along it
In turn, B20 returned an optical density of 1.49 OD.
On the same count and under the same terms, then B21, with 3.65 OD; and B22, with 3.02 OD.

In another assay the target is T5, biotinylated goat anti-human kappa light chain.
T5 construct: positive control of the ELISA
The assay is described as follows: ELISA, positive control. A digest of the protocol: as §1
The molecule B1 came in with an optical density of 3 OD.
The same measure, in the same setting: in the case of B2 it was 3.53 OD.
Molecule B3 had an optical density of 3.54 OD.
Still for that read-out and setting: in the case of B4 it was 3.45 OD; in that of B5, 3.5 OD.
The molecule B6 returned an optical density of 3.43 OD.
Still for that read-out and setting: in the case of B7 it was 3.5 OD; in that of B8, 3.65 OD.
Molecule B9 yielded an optical density of 3.4 OD.
The same measure, in the same setting: in the case of B10 it was 3.45 OD; in that of B11, 3.52 OD.
Turning to B12, the optical density was found to be 3.53 OD.
On to B13, for which the optical density is 3.04 OD.
Same read-out and setting: in the case of B14 it was 3.54 OD; in that of B15, 3.57 OD; in that of B16, 3.61 OD.
As for B17, the optical density was 3.29 OD.
On to B18, for which the optical density came to 3.52 OD.
In the case of B19, the optical density came to 3.12 OD.

A further assay concerns the target T6, biotinylated goat anti-human kappa light chain.
T6 construct: positive control of the ELISA
The assay is described as follows: ELISA, positive control. An outline of the steps:
as §1
Consider B20, for which the optical density turned out to be 3.51 OD.
Same read-out and setting: then B21, with 3.47 OD.
Still for that read-out and setting: in the case of B22 it was 3.18 OD.

The target in another assay is T7, Goat anti-Human Kappa.
T7 construct: Positive control of the ELISA; also called biotinylated goat anti-human kappa light chain
Kind of assay: ELISA, positive control. An outline of the steps:
as §1
For B23, the optical density turned out to be 3.17 OD.
